Results on six molecules are retold here after patent publication US20260200999A1, “SYNTHETIC TRANSCRIPTION FACTORS” (ETH ZURICH, priority 2022, published 2026).

“Also recorded” adds a separate entry of the source.

For data set [1], the target named is FRB and FKBP dimerization (Homo sapiens, UniProt P42345+P62942, T2098L). Conditions: previously reported A/C-inducible FRB and FKBP systems [31], [33]; cited from earlier work.
In data set [2] the target is T1, FKBP (SEQ ID NO: 142) and FRBT2098L (SEQ ID NO: 140) heterodimerization (Homo sapiens, UniProt P42345+P62942+Q04206, T2098L).
T1 construct: expressed in transfected cells; host or cells: HEK293
T1 sequence (P62942 with tags, fused parts or gaps, stated change not applied): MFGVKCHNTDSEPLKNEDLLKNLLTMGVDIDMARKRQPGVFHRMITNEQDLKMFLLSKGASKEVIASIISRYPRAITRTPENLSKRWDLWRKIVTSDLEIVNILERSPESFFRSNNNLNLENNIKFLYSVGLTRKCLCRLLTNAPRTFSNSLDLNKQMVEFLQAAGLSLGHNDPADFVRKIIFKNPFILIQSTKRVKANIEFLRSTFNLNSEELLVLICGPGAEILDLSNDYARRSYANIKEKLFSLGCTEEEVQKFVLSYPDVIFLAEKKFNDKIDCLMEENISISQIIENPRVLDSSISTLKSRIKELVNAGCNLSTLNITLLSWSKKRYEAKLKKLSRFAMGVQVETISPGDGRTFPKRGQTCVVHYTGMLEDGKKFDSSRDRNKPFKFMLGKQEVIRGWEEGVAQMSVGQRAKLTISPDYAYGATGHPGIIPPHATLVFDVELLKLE
T1 sequence (P42345+Q04206 fused P42345:T2098L): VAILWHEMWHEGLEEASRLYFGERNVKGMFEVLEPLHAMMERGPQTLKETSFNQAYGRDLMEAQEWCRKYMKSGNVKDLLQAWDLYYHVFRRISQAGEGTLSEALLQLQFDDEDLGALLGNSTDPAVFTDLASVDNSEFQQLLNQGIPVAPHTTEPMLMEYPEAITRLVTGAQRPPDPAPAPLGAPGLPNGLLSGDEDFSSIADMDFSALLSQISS
The data set is described as follows: A/C heterodimerizer-inducible HumTAP gene expression system in HEK293 cells. It is filed as cell-based. From the text: One well-characterized small-molecule based dimerization system is based on the rapamycin analog A/C (C16-(S)-7-methylindolerapamycin) that induces heterodimerization between the human proteins FK506-binding protein 12 (FKBP; SEQ ID NO: 142) and the FKBP12-rapamycin binding domain (FRB) mutant FRBT2098L (SEQ ID NO: 140), [31]. To achieve A/C heterodimerizer-inducible gene expression, the inventors fused FKBP (SEQ ID NO: 142) to the N-terminus of MTERF158-399 (SEQ ID NO: 1) and FRB (SEQ ID NO: 140) to the C-terminus of different transactivation domains (FIG. 10A). […] In accordance with the results described above, chimeric transactivation domains mediated higher maximal output expression levels than RelA430-551.
The inventors reasoned that in the present system, dimerization might be hindered by either FRB's or FKBP's fusion partner and investigated whether the addition of linkers between the protein domains might impact the EC50 value (FIG. 10 D). A combination of the cMyc nuclear localization signal (NLS) (SEQ ID NO: 122) linking MTERF158-399 and FKBP, and the rigid linker AP6 (SEQ ID NO: 120) linking FRB and RelA430-551 led to a reduction in EC50 to ~60 nM while also increasing maximal output ~3-fold over the variant without linkers and RelA430-551 as TAD (FIG. 10 D).

The conditions of data set [3]: upon ingestion; cited from earlier work.
Data set [4] has as its target T2, MTF (MTERF1 58-399::RelA 430-551) (Homo sapiens, UniProt Q99551 SEQ:2-343).
T2 chain: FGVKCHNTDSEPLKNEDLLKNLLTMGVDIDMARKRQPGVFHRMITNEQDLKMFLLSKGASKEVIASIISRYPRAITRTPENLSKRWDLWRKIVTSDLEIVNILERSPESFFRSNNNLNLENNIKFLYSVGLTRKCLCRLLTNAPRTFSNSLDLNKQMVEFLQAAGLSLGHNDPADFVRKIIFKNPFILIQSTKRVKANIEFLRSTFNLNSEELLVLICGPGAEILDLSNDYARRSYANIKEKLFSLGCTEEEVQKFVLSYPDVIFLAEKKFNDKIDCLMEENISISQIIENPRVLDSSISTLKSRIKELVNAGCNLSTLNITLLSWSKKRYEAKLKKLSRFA
The data set can be described thus: cell_activity; mCitrine, HEK293; none without MTF. The settings on record: tags: RelA 430-551 TAD fusion. From the text:
The inventors next sought to facilitate potential future applications and created a collection of promoters with different strengths to match potential future applications' requirements. Randomly picking 20 variants yielded mostly weak promoters. To maximize diversity in size and strength, the inventors chose 19 further promoters based on their high activity score or small genetic size. Altogether, the inventors created a promoter collection spanning a wide range of sizes and strengths (FIG. 15A, B). After co-transfecting each variant either with or without a MTF plasmid amount corresponding to the EC90, and a mCherry transfection control plasmid into HEK293 cells, relative mCitrine levels were measured using flow cytometry. […]

In data set [5] the test system is endogenous human genes in HEK293 cells. The data set is described as follows: RNA-Seq differential gene expression analysis of transfected HEK293 cells versus junk plasmid (edgeR). It is filed as cell-based. Conditions: transfected HEK293 cells vs "junk" plasmid, FDR<0.5, fold-change of at least 2. As to the method: The inventors therefore used RNA-Seq to investigate whether MTF (SEQ ID NO: 100) activates the expression of endogenous human genes. The inventors also transfected WT MTERF1 (SEQ ID NO: 108) to compare the gene-regulatory effects of MTERF1 to those of MTF. Differential gene expression analysis was performed against cells that were transfected with a “junk” plasmid using the edgeR software package for R [24]. […] Future investigations will assess the dose-dependency of differentially expressed (DE) genes on MTF amount and may help clarify the origin of DE genes.

For data set [6], the system named is Response Element-driven (SEQ ID NO: 48) mCerulean fluorescent reporter. The data set can be described thus: Orthogonality: MTF-driven reporter with or without WT MTERF1 co-expression. It is filed as cell-based, human. Conditions: HEK293; MTF construct plus reporter SEQ ID NO: 48, with or without EF1a-driven WT MTERF1. From the text:
To assess the orthogonality of the host towards the Response Element-driven Gene of Interest (Gol), the inventors transfected a HumTAP representative MTF (SEQ ID NO: 100) with a Response Element-driven (SEQ ID NO: 48) mCerulean fluorescent reporter, with and without the construct encoding a wild-type MTERF1 to assess whether it might interfere with the induction of the Gol by MTF (FIG. 7B).

A further data set addresses T3, MTERF1 58-399::2xTA1 (Homo sapiens, UniProt Q99551 SEQ:1-342).
T3 chain: T2 chain
The data set is described as follows: cell_activity; HEK293 reporter. Conditions: tags: TAD fusion.

For another data set, the target named is T4, MTERF1 58-399::LMSTEN (Homo sapiens, UniProt Q99551 SEQ:1-342).
T4 chain: T2 chain
The data set can be described thus: cell_activity; HEK293 reporter; TAD effect. The settings on record: tags: TAD fusion.

In the next data set the target is T5, MTERF1 58-399::FoxoTAD (Homo sapiens, UniProt Q99551 SEQ:1-342).
T5 chain: T2 chain
The data set can be described thus: cell_activity; HEK293 reporter; TAD effect. Conditions: tags: TAD fusion.

For the next data set, the target named is T6, MTERF1 58-399::2xFoxoTAD (Homo sapiens, UniProt Q99551 SEQ:1-342).
T6 chain: T2 chain
The data set can be described thus: cell_activity; HEK293 reporter. The settings on record: tags: TAD fusion. The source says:
(§1) Upon co-transfection of HEK293 cells with plasmids encoding pEF1a-driven expression of the fusion HumTAPs, a Response Element-driven mCerulean reporter protein, and a mCherry transfection control, all peptides derived from RelA except TA1 mediated high levels of reporter gene expression. Including a larger fraction of the RelA protein led to higher reporter expression. Conversely, the core transactivation domains TA1, WW, ZNF473 KRAB, and NucRecCoAct mediated little to no reporter expression.
(§2) Similarly, two copies of FoxoTAD (SEQ ID NO: 33) mediated 20-fold more mCerulean expression than just one FoxoTAD copy and ~2-fold more than the benchmark RelA₄₃₀₋₅₅₁ TAD. This effect was not as pronounced for the LMSTEN domain for which two copies (SEQ ID NO: 196) mediated ~2.7-fold more reporter expression than one copy. Fusing FoxoTAD with LMSTEN (SEQ ID NO: 54), LMSTEN with TA1 (SEQ ID NO: 56), or FoxoTAD with TA1 (SEQ ID NO: 58) yields TADs that are at the same time smaller and stronger than the benchmark RelA₄₃₀₋₅₅₁ TAD. A chimeric TAD consisting of FoxoTAD, LMSTEN, and TA1 (SEQ ID NO: 52) yields 3.7 times the amount of reporter gene expression than RelA₄₃₀₋₅₅₁ (FIG. 9 C). It is therefore possible to engineer both stronger and smaller transactivation domains than the commonly used RelA₄₃₀₋₅₅₁ without incorporating protein domains of non-human origin. […]

Data set [7] addresses T7, MTERF1 58-399::FoxoTAD-LMSTEN-TA1 (Homo sapiens, UniProt Q99551 SEQ:1-342).
T7 chain: T2 chain
The data set can be described thus: cell_activity; HEK293 reporter. The settings on record: tags: TAD fusion.
Description: as §1, §2

Sequence of FRB and FKBP dimerization (P62942 whole entry): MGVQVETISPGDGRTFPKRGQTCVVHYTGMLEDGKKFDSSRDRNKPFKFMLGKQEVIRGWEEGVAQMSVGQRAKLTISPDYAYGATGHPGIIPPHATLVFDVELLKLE
Sequence of FRB and FKBP dimerization (P42345 2012-2144 T2098L): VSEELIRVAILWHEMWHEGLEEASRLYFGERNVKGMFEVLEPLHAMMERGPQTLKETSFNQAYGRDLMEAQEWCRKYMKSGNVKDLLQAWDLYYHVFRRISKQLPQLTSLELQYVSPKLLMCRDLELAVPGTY

What is called EC50 is the concentration at which the effect is half-maximal. For “C16-(S)-7-methylindolerapamycin [A/C heterodimerizer]”, the EC50 in [1] was about 1 nM; in data set [2] (cMyc NLS linking MTERF158-399 and FKBP, AP6 linker linking FRB and RelA430-551, FIG. 10D), about 60 nM. The “mCerulean levels versus inducer concentration” value in data set [2] (HEK cells co-transfected with MTERF158-399::FKBP and FRB fusions to the strongest TADs, FIG. 10C) is recorded as “increased dose-dependently”.

Consider `CO[C@H]1C[C@@H]2CC[C@@H](C)[C@@](O)(O2)C(=O)C(=O)N2CCCC[C@H]2C(=O)O[C@H]([C@H](C)C[C@@H]2CC[C@@H](O)[C@H](OC)C2)CC(=O)[C@H](C)/C=C(\C)[C@@H](O)[C@@H](OC)C(=O)[C@H](C)C[C@H](C)/C=C/C=C/C=C/1C` [rapamycin], for which the physiological blood concentrations in [3] is reported as ~ 22 nM.

B1: sense-5-8-10 promoter (dsDNA)
DNA 1: TAAGATGGCAGAGCCCGGTAATAGAGTGCGTAAGATGGCAGAGCCCGGTAATAGAGTGCGTAAGATGGCAGAGCCCGGTAATAGAGTGCGTAAGATGGCAGAGCCCGGTAATAGAGTGCGTAAGATGGCAGAGCCCGGTAATGACTCATATGCTCTAGAGGGTATATAATGGGGGCC
DNA 2: GGCCCCCATTATATACCCTCTAGAGCATATGAGTCATTACCGGGCTCTGCCATCTTACGCACTCTATTACCGGGCTCTGCCATCTTACGCACTCTATTACCGGGCTCTGCCATCTTACGCACTCTATTACCGGGCTCTGCCATCTTACGCACTCTATTACCGGGCTCTGCCATCTTA
Molecule B1 returned a binding signal in [4] of 2 fold vs sense-5-9-8.

B2: WT MTERF1: human MTERF1, Uniprot Q99551, including the mitochondrial transfer peptide (protein, listed as Homo sapiens)
chain: MQSLSLGQTSISKGLNYLTIMAPGNLWHMRNNFLFGSRCWMTRFSAENIFKSVSFRLFGVKCHNTDSEPLKNEDLLKNLLTMGVDIDMARKRQPGVFHRMITNEQDLKMFLLSKGASKEVIASIISRYPRAITRTPENLSKRWDLWRKIVTSDLEIVNILERSPESFFRSNNNLNLENNIKFLYSVGLTRKCLCRLLTNAPRTFSNSLDLNKQMVEFLQAAGLSLGHNDPADFVRKIIFKNPFILIQSTKRVKANIEFLRSTFNLNSEELLVLICGPGAEILDLSNDYARRSYANIKEKLFSLGCTEEEVQKFVLSYPDVIFLAEKKFNDKIDCLMEENISISQIIENPRVLDSSISTLKSRIKELVNAGCNLSTLNITLLSWSKKRYEAKLKKLSRFA
B2: the “DE genes, Regulation Up (up-regulated gene, Symbol)” value in data set [5] was “GDF15; also recorded: TRPV6; also recorded: HSPA7”.

B3: MTF: fusion of human MTERF1 amino acids 58-399 to RELA amino acids 430-551; prototype HumTAP synthetic transcription factor (protein)
chain: MFGVKCHNTDSEPLKNEDLLKNLLTMGVDIDMARKRQPGVFHRMITNEQDLKMFLLSKGASKEVIASIISRYPRAITRTPENLSKRWDLWRKIVTSDLEIVNILERSPESFFRSNNNLNLENNIKFLYSVGLTRKCLCRLLTNAPRTFSNSLDLNKQMVEFLQAAGLSLGHNDPADFVRKIIFKNPFILIQSTKRVKANIEFLRSTFNLNSEELLVLICGPGAEILDLSNDYARRSYANIKEKLFSLGCTEEEVQKFVLSYPDVIFLAEKKFNDKIDCLMEENISISQIIENPRVLDSSISTLKSRIKELVNAGCNLSTLNITLLSWSKKRYEAKLKKLSRFAQAGEGTLSEALLQLQFDDEDLGALLGNSTDPAVFTDLASVDNSEFQQLLNQGIPVAPHTTEPMLMEYPEAITRLVTGAQRPPDPAPAPLGAPGLPNGLLSGDEDFSSIADMDFSALLSQISS
B3: the “DE genes, Regulation Up (up-regulated gene, Symbol)” value in data set [5] is on record as “Novel Transcript; also recorded: USP17L2; also recorded: HSPA7; also recorded: ADGRA1”. Also, the “Gol fluorescence levels with or without concomitant WT MTERF1 expression” value in data set [6] is reported as “no difference in Gol fluorescence levels”.

B4: 5xRE, 0 bp spacing (dsDNA)
DNA 1: TAAGATGGCAGAGCCCGGTAATTAAGATGGCAGAGCCCGGTAATTAAGATGGCAGAGCCCGGTAATTAAGATGGCAGAGCCCGGTAATTAAGATGGCAGAGCCCGGTAAT
DNA 2: ATTACCGGGCTCTGCCATCTTAATTACCGGGCTCTGCCATCTTAATTACCGGGCTCTGCCATCTTAATTACCGGGCTCTGCCATCTTAATTACCGGGCTCTGCCATCTTA
Turning to B4, the binding signal was 201 fold vs one TA1 copy with MTERF1 58-399::2xTA1; 11.3 fold lower than MTF with MTERF1 58-399::LMSTEN; 8.4 fold lower than MTF in the data set with MTERF1 58-399::FoxoTAD; about 2 fold vs MTF with MTERF1 58-399::2xFoxoTAD; 3.7 fold vs MTF in data set [7].
